Assays:
[1] = biological target: T1, 6× His-tagged PRMT5 (human, UniProt O14744 1-637); assay: pull-down; binding reaction (500 μl) with 100 μl purified His-p16^INK4a (or His-PRMT5) and increasing amounts (50, 100, 200, 400 μl) of purified His-PRMT5 (or His-p16^INK4a) incubated with GST-fused CDK4 1-70 aa; Western blot; details: both partners purified
T1 construct: protein arginine methyltransferase 5 (PRMT5), human; also called His-PRMT5

[2] = biological target: T2, 6× His-tagged p16^INK4a (human, UniProt P42771 1-156); assay: as above; details: both partners purified
T2 construct: p16^INK4a, the major isoform of CDKN2A, human; also called His-p16^INK4a; CDKN2A
T2 sequence (looked up): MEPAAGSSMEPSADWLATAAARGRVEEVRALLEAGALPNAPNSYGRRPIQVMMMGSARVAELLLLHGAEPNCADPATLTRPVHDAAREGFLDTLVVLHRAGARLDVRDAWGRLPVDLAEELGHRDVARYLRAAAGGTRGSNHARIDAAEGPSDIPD

T1 sequence (O14744 whole entry, the tested form may be a part): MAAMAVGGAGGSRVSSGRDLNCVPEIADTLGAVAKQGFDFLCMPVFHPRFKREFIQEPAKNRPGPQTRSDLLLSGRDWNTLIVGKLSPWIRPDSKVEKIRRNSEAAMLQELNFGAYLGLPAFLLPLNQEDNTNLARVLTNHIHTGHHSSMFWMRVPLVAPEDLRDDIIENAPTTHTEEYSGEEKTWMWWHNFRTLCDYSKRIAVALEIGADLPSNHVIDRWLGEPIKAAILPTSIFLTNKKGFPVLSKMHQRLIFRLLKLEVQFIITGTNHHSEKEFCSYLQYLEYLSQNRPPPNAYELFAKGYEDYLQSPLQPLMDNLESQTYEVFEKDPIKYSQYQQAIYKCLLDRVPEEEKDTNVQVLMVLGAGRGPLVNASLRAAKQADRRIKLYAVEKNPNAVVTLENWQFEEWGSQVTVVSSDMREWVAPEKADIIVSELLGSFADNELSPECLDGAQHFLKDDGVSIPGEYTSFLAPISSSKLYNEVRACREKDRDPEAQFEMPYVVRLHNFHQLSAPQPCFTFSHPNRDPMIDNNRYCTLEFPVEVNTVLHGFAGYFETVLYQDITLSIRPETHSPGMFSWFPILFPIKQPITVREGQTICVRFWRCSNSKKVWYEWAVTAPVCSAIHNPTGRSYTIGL

binding result [1]: binds | binding result [2]: binds
B1: GST-fused CDK4 1-70 aa (domain or fragment, human, UniProt P11802-1 1-70, looked up)
chain: MATSRYEPVAEIGVGAYGTVYKARDPHSGHFVALKSVRVPNGGGGGGGLPISTVREVALLRRLEAFEHPN
notes: cyclin dependent kinase 4 (CDK4), human, amino acids 1-70 of NP_000066; also called GST-CDK4 fragment 1-70; source: E. coli BL21, purified (glutathione-Sepharose 4B beads)
